Reference: article PMC8009439

Key:
[1] = target: pyruvate kinase isoform M2 (PKM2), endogenous in immortalized hepatocytes (human (endogenous in NeHepLxHT)) (UniProt P14618); assay: glycerol density gradient centrifugation
[2] = target: pyruvate kinase isoform M2 (PKM2), endogenous in immortalized hepatocytes (human (endogenous in NeHepLxHT)) (UniProt P14618); assay: cross-linking; cell lysate treated with 0.1% glutaraldehyde for 20 minutes at 25°C, stopped with 50 mM Tris pH 8.0, SDS-PAGE and western blot for PKM2; control and LHBS-expressing immortalized hepatocytes, HuH-7 and HepG2 cells infected with Ad-HBV-KO or Ad-HBV-WT

Sequence of pyruvate kinase isoform M2 (PKM2), endogenous in immortalized hepatocytes, P14618 1-531 (enzyme; other documents disagree on this pair) (P14618 whole entry, canonical isoform): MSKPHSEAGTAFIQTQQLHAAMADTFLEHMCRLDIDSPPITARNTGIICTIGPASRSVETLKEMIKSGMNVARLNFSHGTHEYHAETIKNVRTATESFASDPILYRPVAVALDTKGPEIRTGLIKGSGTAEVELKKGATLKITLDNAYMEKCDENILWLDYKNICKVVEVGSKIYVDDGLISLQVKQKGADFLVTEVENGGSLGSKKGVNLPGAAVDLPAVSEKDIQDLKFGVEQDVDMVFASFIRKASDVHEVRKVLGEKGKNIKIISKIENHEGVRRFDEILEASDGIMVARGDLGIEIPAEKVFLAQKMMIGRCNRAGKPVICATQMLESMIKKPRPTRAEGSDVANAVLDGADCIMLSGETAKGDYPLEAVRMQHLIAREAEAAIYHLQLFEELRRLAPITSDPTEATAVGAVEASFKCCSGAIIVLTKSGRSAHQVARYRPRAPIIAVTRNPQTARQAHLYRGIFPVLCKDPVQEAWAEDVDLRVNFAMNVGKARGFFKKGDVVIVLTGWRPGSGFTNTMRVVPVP

## pyruvate kinase isoform M2 (PKM2), endogenous in immortalized hepatocytes, P14618 1-531 (enzyme; other documents disagree on this pair)
[1]
  stoichiometry N: 2
[2]
  stoichiometry N: 2
